# Measured values reported in patent US5162203A, “Methods of measuring isozymes and isozyme classes of alcohol dehydrogenase” (President and Fellows of Harvard College, priority 1989, dated 1992).
# What was measured:
# Format in all cases: biochemical, human
# [1] = substrate: COc1ccc(C=O)c2ccccc12; test: Kinetics of enzymatic reduction of methoxynaphthaldehydes by Class II ADH; details: 25.0 °C
# [2] = substrate: COc1ccc2cc(C=O)ccc2c1; test: as above; details: other: pH 7.0, 50 μM NADH; spectrophotometric; pH 7.0; 25.0 °C
# [3] = substrate: COc1ccc(C=O)c2ccccc12; test: Kinetics of enzymatic reduction of methoxynaphthaldehydes by β1γ1 ADH; details: other: pH 7.0, 50 μM NADH, fluorometric, 25.0 °C
# [4] = substrate: COc1ccc2cc(C=O)ccc2c1; test: as above; details: other: pH 7.0, 50 μM NADH, fluorometric, 25.0 °C
# [5] = substrate: COc1ccc(C=O)c2ccccc12; test: Kinetics of enzymatic reduction of methoxynaphthaldehydes by γ1γ1 ADH; details: other: pH 7.0, 50 μM NADH, fluorometric, 25.0 °C
# [6] = substrate: COc1ccc2cc(C=O)ccc2c1; test: as above; details: other: pH 7.0, 50 μM NADH, fluorometric, 25.0 °C
# [7] = substrate: COc1ccc(C=O)c2ccccc12; test: Kinetics of enzymatic reduction of methoxynaphthaldehydes by αβ1 ADH; details: other: pH 7.0, 50 μM NADH, spectrophotometric, 25.0 °C
# Description: (§1) Standard assays for ethanol oxidation activity (Dalziel, 1957, Acta Chem Scand 11:1706-23) were carried out on a Cary 219 spectrophotometer interfaced with an Apple IIe microcomputer, using software provided by Varian Associates. The reaction mixture contained 2.5 mM NAD^+ in 0.1M glycine-NaOH buffer. pH 10.0, and 33 mM or 0.2M ethanol for Class I and Class II ADH, respectively.
# (§2) Aldehyde reduction was monitored by following the decrease of absorption at 340 nm in 40 mM Mes buffer, pH 7.1. in the presence of saturating NADH, 50 μM for Class I and 100 μM for Class II. […] Initial reaction rates were measured and kinetic parameters determined by conventional procedures as described by Segel, 1975, Enzyme Kinetics, pp. 591-597, Wiley, N.Y.
# (§3) All reaction mixtures (3 ml total volume) were prepared directly in 1 cm pathlength, 4 ml fluorometric cuvettes by adding 150 μl of the 300 μM substrate solution (e.g substrate IA or IIA) 100 μl of the 1 mM NADH solution (prepared as in part 5 above) and 2.69 ml of assay buffer (0.1M phosphate, pH 7.6). After thermal equilibration (25° C.) for 5 minutes, 60 μl of isozyme sample (either serum or purified ADH isozymes) was added to the cuvette.
# (§4) The linear increase of fluorescence was then recorded for 1-10 minutes, until 0.03-1 μM of substrate was consumed. Larger substrate consumption was not found to be desirable (described in subpart (c) below). After this period the instrument sensitivity setting was reduced 10-30 fold, the signal compensated once again by zero suppression (see part 6 above), and 60 μl of 200-400 μM product (e.g., product IB or IIB) was added to provide an internal standard. The added product fluorescence intensity was then measured Fluorescence measurements were optimized for samples with low activity (<1 nM/minute). […] Rates measured in the presence of the 0.2 mM ADH inhibitors. […]
# (§5) The rates of aldehyde reduction, determined as initial velocities (V) and expressed in units of nM/minute, were calculated according to: [formula] where the quantity in parentheses is the slope of the linear fluorescence increase calculated from the quantities Ft and FO, the fluorescence at time t and at the beginning of the reaction, respectively. Cst is the concentration of the product used as a standard added to the cuvette after the initial rate had been measured and Fst is the fluorescence intensity of the added product
# (§6) Additionally the reaction rates for these isozymes were compared to those measured by the standard assay for ethanol oxidation (see part 7 above) at pH 10.0 the optimum for oxidation of ethanol by ADH. The rate of IA reduction for all Class I isozymes except the β1 β1 form is 1.5- to 4-fold faster than that of ethanol oxidation as measured by the conventional ethanol oxidation assay. […]
# [8] = substrate: COc1ccc2cc(C=O)ccc2c1; test: as above; details: other: pH 7.0, 50 μM NADH, spectrophotometric, 25.0 °C
# Description: as §1, §2, §3, §4, §5, §6
# [9] = substrate: COc1ccc(C=O)c2ccccc12; test: Kinetics of enzymatic reduction of methoxynaphthaldehydes by αγ1 ADH; details: other: pH 7.0, 50 μM NADH, fluorometric, 25.0 °C
# [10] = substrate: COc1ccc2cc(C=O)ccc2c1; test: as above; details: other: pH 7.0, 50 μM NADH, fluorometric, 25.0 °C
# [11] = substrate: COc1ccc2cc(C=O)ccc2c1; test: Kinetics of enzymatic reduction of methoxynaphthaldehydes by Class III ADH; details: other: pH 7.0, 50 μM NADH, 25.0 °C
# [12] = other: pH 7.0, 50 μM NADH, spectrophotometric, pH 7.0
protein,measurement,setting,value
Class II (π) ADH (Homo sapiens) (protein) MGTKGKVIKCKAAIAWEAGKPLCIEEVEVAPPKAHEVRIQIIATSLCHTDATVIDSKFEGLAFPVIVGHEAAGIVESIGPGVTNVKPGDKVIPLYAPLCRKCKFCLSPLTNLCGKISNLKSPASDQQLMEDKTSRFTCKGKPVYHFFGTSTFSQYTVVSDINLAKIDDDANLERVCLLGCGFSTGYGAAINNAKVTPGSTCAVFGLGGVGLSAVMGCKAAGASRIIGIDINSEKFVKAKALGATDCLNPRDLHKPIQEVIIELTKGGVDFALDCAGGSETMKAALDCTTAGWGSCTFIGVAAGSKGLTIFPEELIIGRTINGTFFGGWKSVDSIPKLVTDYKNKKFNLDALVTHTLPFDKISEAFDLMNQGKSVRTILIF,kcat,[1]; other: Class II,0.667 s⁻¹
same,Km,[1]; [12],20.0 µM
same,kcat,[1]; [12],0.833 s⁻¹
same,Km,[2],2.6 µM
same,kcat,[2],25 s⁻¹
"β1 γ1 ADH (Class I) (Homo sapiens) (protein, beta1 (ADH1B*1) and gamma1 (ADH1C*1) alleles) chain 1: MSTAGKVIKCKAAVLWEVKKPFSIEDVEVAPPKAYEVRIKMVAVGICHTDDHVVSGNLVTPLPVILGHEAAGIVESVGEGVTTVKPGDKVIPLFTPQCGKCRVCKNPESNYCLKNDLGNPRGTLQDGTRRFTCRGKPIHHFLGTSTFSQYTVVDENAVAKIDAASPLEKVCLIGCGFSTGYGSAVNVAKVTPGSTCAVFGLGGVGLSAVMGCKAAGAARIIAVDINKDKFAKAKELGATECINPQDYKKPIQEVLKEMTDGGVDFSFEVIGRLDTMMASLLCCHEACGTSVIVGVPPASQNLSINPMLLLTGRTWKGAVYGGFKSKEGIPKLVADFMAKKFSLDALITHVLPFEKINEGFDLLHSGKSIRTVLTF chain 2: MSTAGKVIKCKAAVLWELKKPFSIEEVEVAPPKAHEVRIKMVAAGICRSDEHVVSGNLVTPLPVILGHEAAGIVESVGEGVTTVKPGDKVIPLFTPQCGKCRICKNPESNYCLKNDLGNPRGTLQDGTRRFTCSGKPIHHFVGVSTFSQYTVVDENAVAKIDAASPLEKVCLIGCGFSTGYGSAVKVAKVTPGSTCAVFGLGGVGLSVVMGCKAAGAARIIAVDINKDKFAKAKELGATECINPQDYKKPIQEVLKEMTDGGVDFSFEVIGRLDTMMASLLCCHEACGTSVIVGVPPDSQNLSINPMLLLTGRTWKGAIFGGFKSKESVPKLVADFMAKKFSLDALITNILPFEKINEGFDLLRSGKSIRTVLTF",Km,[3],0.60 µM
same,kcat,[3],4.42 s⁻¹
same,Km,[4],0.40 µM
same,kcat,[4],2.83 s⁻¹
"γ1 γ1 ADH (Class I) (Homo sapiens) (protein, gamma1 allele (ADH1C*1, Arg271 and Ile349 in mature count)) STAGKVIKCKAAVLWELKKPFSIEEVEVAPPKAHEVRIKMVAAGICRSDEHVVSGNLVTPLPVILGHEAAGIVESVGEGVTTVKPGDKVIPLFTPQCGKCRICKNPESNYCLKNDLGNPRGTLQDGTRRFTCSGKPIHHFVGVSTFSQYTVVDENAVAKIDAASPLEKVCLIGCGFSTGYGSAVKVAKVTPGSTCAVFGLGGVGLSVVMGCKAAGAARIIAVDINKDKFAKAKELGATECINPQDYKKPIQEVLKEMTDGGVDFSFEVIGRLDTMMASLLCCHEACGTSVIVGVPPDSQNLSINPMLLLTGRTWKGAIFGGFKSKESVPKLVADFMAKKFSLDALITNILPFEKINEGFDLLRSGKSIRTVLTF",Km,[5],2.30 µM
same,kcat,[5],10.2 s⁻¹
same,Km,[6],0.35 µM
same,kcat,[6],1.83 s⁻¹
"αβ1 ADH (Class I) (Homo sapiens) (protein, beta1 allele (ADH1B*1, Arg47 and Arg369 in mature count)) chain 1: STAGKVIKCKAAVLWELKKPFSIEEVEVAPPKAHEVRIKMVAVGICGTDDHVVSGTMVTPLPVILGHEAAGIVESVGEGVTTVKPGDKVIPLAIPQCGKCRICKNPESNYCLKNDVSNPQGTLQDGTSRFTCRRKPIHHFLGISTFSQYTVVDENAVAKIDAASPLEKVCLIGCGFSTGYGSAVNVAKVTPGSTCAVFGLGGVGLSAIMGCKAAGAARIIAVDINKDKFAKAKELGATECINPQDYKKPIQEVLKEMTDGGVDFSFEVIGRLDTMMASLLCCHEACGTSVIVGVPPDSQNLSMNPMLLLTGRTWKGAILGGFKSKECVPKLVADFMAKKFSLDALITHVLPFEKINEGFDLLHSGKSIRTILMF chain 2: STAGKVIKCKAAVLWEVKKPFSIEDVEVAPPKAYEVRIKMVAVGICHTDDHVVSGNLVTPLPVILGHEAAGIVESVGEGVTTVKPGDKVIPLFTPQCGKCRVCKNPESNYCLKNDLGNPRGTLQDGTRRFTCRGKPIHHFLGTSTFSQYTVVDENAVAKIDAASPLEKVCLIGCGFSTGYGSAVNVAKVTPGSTCAVFGLGGVGLSAVMGCKAAGAARIIAVDINKDKFAKAKELGATECINPQDYKKPIQEVLKEMTDGGVDFSFEVIGRLDTMMASLLCCHEACGTSVIVGVPPASQNLSINPMLLLTGRTWKGAVYGGFKSKEGIPKLVADFMAKKFSLDALITHVLPFEKINEGFDLLHSGKSIRTVLTF",Km,[7],8.5 µM
same,kcat,[7],7.5 s⁻¹
same,Km,[8],11.5 µM
same,kcat,[8],2.67 s⁻¹
"αγ1 ADH (Class I) (Homo sapiens) (protein, gamma1 allele (ADH1C*1, Arg271 and Ile349 in mature count)) chain 1: STAGKVIKCKAAVLWELKKPFSIEEVEVAPPKAHEVRIKMVAVGICGTDDHVVSGTMVTPLPVILGHEAAGIVESVGEGVTTVKPGDKVIPLAIPQCGKCRICKNPESNYCLKNDVSNPQGTLQDGTSRFTCRRKPIHHFLGISTFSQYTVVDENAVAKIDAASPLEKVCLIGCGFSTGYGSAVNVAKVTPGSTCAVFGLGGVGLSAIMGCKAAGAARIIAVDINKDKFAKAKELGATECINPQDYKKPIQEVLKEMTDGGVDFSFEVIGRLDTMMASLLCCHEACGTSVIVGVPPDSQNLSMNPMLLLTGRTWKGAILGGFKSKECVPKLVADFMAKKFSLDALITHVLPFEKINEGFDLLHSGKSIRTILMF chain 2: STAGKVIKCKAAVLWELKKPFSIEEVEVAPPKAHEVRIKMVAAGICRSDEHVVSGNLVTPLPVILGHEAAGIVESVGEGVTTVKPGDKVIPLFTPQCGKCRICKNPESNYCLKNDLGNPRGTLQDGTRRFTCSGKPIHHFVGVSTFSQYTVVDENAVAKIDAASPLEKVCLIGCGFSTGYGSAVKVAKVTPGSTCAVFGLGGVGLSVVMGCKAAGAARIIAVDINKDKFAKAKELGATECINPQDYKKPIQEVLKEMTDGGVDFSFEVIGRLDTMMASLLCCHEACGTSVIVGVPPDSQNLSINPMLLLTGRTWKGAIFGGFKSKESVPKLVADFMAKKFSLDALITNILPFEKINEGFDLLRSGKSIRTVLTF",Km,[9],2.8 µM
same,kcat,[9],8.33 s⁻¹
same,Km,[10],0.58 µM
same,kcat,[10],2.5 s⁻¹
Class III (.chi.) ADH (Homo sapiens) (protein) MANEVIKCKAAVAWEAGKPLSIEEIEVAPPKAHEVRIKIIATAVCHTDAYTLSGADPEGCFPVILGHEGAGIVESVGEGVTKLKAGDTVIPLYIPQCGECKFCLNPKTNLCQKIRVTQGKGLMPDGTSRFTCKGKTILHYMGTSTFSEYTVVADISVAKIDPLAPLDKVCLLGCGISTGYGAAVNTAKLEPGSVCAVFGLGGVGLAVIMGCKVAGASRIIGVDINKDKFARAKEFGATECINPQDFSKPIQEVLIEMTDGGVDYSFECIGNVKVMRAALEACHKGWGVSVVVGVAASGEEIATRPFQLVTGRTWKGTAFGGWKSVESVPKLVSEYMSKKIKVDEFVTHNLSFDEINKAFELMHSGKSIRTVVKI,kcat/Km,[11],830 M⁻¹ s⁻¹
